Experiments:
[1] = target: GST-SiglecBMSL3cyto (wildtype)

| Protein | Decrease in Wild type Phosphorylation (GST-L3cyto-Y667F) [%] | phosphorylation of wildtype GST-SIGLECBMS-L3cyto (kinase ELISA, anti p-Tyr HRP) [1] | Decrease in Wild type Phosphorylation (L3cyto-Y691F) [%] | Decrease in Wild type Phosphorylation (GST-L3cyto-Y641alone) [%] |
| --- | --- | --- | --- | --- |
| emt kinase (protein) MNNFILLEEQLIKKSQQKRRTSPSNFKVRFFVLTKASLAYFEDRHGKKRTLKGSIELSRIKCVEIVKSDISIPCHYKYPFQVVHDNYLLYVFAPDRESRQRWVLALKEETRNNNSLVPKYHPNFWMDGKWRCCSQLEKLATGCAQYDPTKNASKKPLPPTPEDNRRPLWEPEETVVIALYDYQTNDPQELALRRNEEYCLLDSSEIHWWRVQDRNGHEGYVPSSYLVEKSPNNLETYEWYNKSISRDKAEKLLLDTGKEGAFMVRDSRTAGTYTVSVFTKAVVSENNPCIKHYHIKETNDNPKRYYVAEKYVFDSIPLLINYHQHNGGGLVTRLRYPVCFGRQKAPVTAGLRYGKWVIDPSELTFVQEIGSGQFGLVHLGYWLNKDKVAIKTIREGAMSEEDFIEEAEVMMKLSHPKLVQLYGVCLEQAPICLVFEFMEHGCLSDYLRTQRGLFAAETLLGMCLDVCEGMAYLEEACVIHRDLAARNCLVGENQVIKVSDFGMTRFVLDDQYTSSTGTKFPVKWASPEVFSFSRYSSKSDVWSFGVLMWEVFSEGKIPYENRSNSEVVEDISTGFRLYKPRLASTHVYQIMNHCWKERPEDRPAFSRLLRQLAEIAESGL | 70 | emt(65%) | – | – |
| JAK3 kinase (protein) MAPPSEETPLIPQRSCSLLSTEAGALHVLLPARGPGPPQRLSFSFGDHLAEDLCVQAAKASGILPVYHSLFALATEDLSCWFPPSHIFSVEDASTQVLLYRIRFYFPNWFGLEKCHRFGLRKDLASAILDLPVLEHLFAQHRSDLVSGRLPVGLSLKEQGECLSLAVLDLARMAREQAQRPGELLKTVSYKACLPPSLRDLIQGLSFVTRRRIRRTVRRALRRVAACQADRHSLMAKYIMDLERLDPAGAAETFHVGLPGALGGHDGLGLLRVAGDGGIAWTQGEQEVLQPFCDFPEIVDISIKQAPRVGPAGEHRLVTVTRTDNQILEAEFPGLPEALSFVALVDGYFRLTTDSQHFFCKEVAPPRLLEEVAEQCHGPITLDFAINKLKTGGSRPGSYVLRRSPQDFDSFLLTVCVQNPLGPDYKGCLIRRSPTGTFLLVGLSRPHSSLRELLATCWDGGLHVDGVAVTLTSCCIPRPKEKSNLIVVQRGHSPPTSSLVQPQSQYQLSQMTFHKIPADSLEWHENLGHGSFTKIYRGCRHEVVDGEARKTEVLLKVMDAKHKNCMESFLEAASLMSQVSYRHLVLLHGVCMAGDSTMVQEFVHLGAIDMYLRKRGHLVPASWKLQVVKQLAYALNYLEDKGLPHGNVSARKVLLAREGADGSPPFIKLSDPGVSPAVLSLEMLTDRIPWVAPECLREAQTLSLEADKWGFGATVWEVFSGVTMPISALDPAKKLQFYEDRQQLPAPKWTELALLIQQCMAYEPVQRPSFRAVIRDLNSLISSDYELLSDPTPGALAPRDGLWNGAQLYACQDPTIFEERHLKYISQLGKGNFGSVELCRYDPLGDNTGALVAVKQLQHSGPDQQRDFQREIQILKALHSDFIVKYRGVSYGPGRQSLRLVMEYLPSGCLRDFLQRHRARLDASRLLLYSSQICKGMEYLGSRRCVHRDLAARNILVESEAHVKIADFGLAKLLPLDKDYYVVREPGQSPIFWYAPESLSDNIFSRQSDVWSFGVVLYELFTYCDKSCSPSAEFLRMMGCERDVPALCRLLELLEEGQRLPAPPACPAEVHELMKLCWAPSPQDRPSFSALGPQLDMLWSGSRGCETHAFTAHPEGKHHSLSFS | 50 | JAK3 (92%) | 25 | – |
| ZAP70 kinase (protein) MPDPAAHLPFFYGSISRAEAEEHLKLAGMADGLFLLRQCLRSLGGYVLSLVHDVRFHHFPIERQLNGTYAIAGGKAHCGPAELCEFYSRDPDGLPCNLRKPCNRPSGLEPQPGVFDCLRDAMVRDYVRQTWKLEGEALEQAIISQAPQVEKLIATTAHERMPWYHSSLTREEAERKLYSGAQTDGKFLLRPRKEQGTYALSLIYGKTVYHYLISQDKAGKYCIPEGTKFDTLWQLVEYLKLKADGLIYCLKEACPNSSASNASGAAAPTLPAHPSTLTHPQRRIDTLNSDGYTPEPARITSPDKPRPMPMDTSVYESPYSDPEELKDKKLFLKRDNLLIADIELGCGNFGSVRQGVYRMRKKQIDVAIKVLKQGTEKADTEEMMREAQIMHQLDNPYIVRLIGVCQAEALMLVMEMAGGGPLHKFLVGKREEIPVSNVAELLHQVSMGMKYLEEKNFVHRDLAARNVLLVNRHYAKISDFGLSKALGADDSYYTARSAGKWPLKWYAPECINFRKFSSRSDVWSYGVTMWEALSYGQKPYKKMKGPEVMAFIEQGKRMECPPECPPELYALMSDCWIYKWEDRPDFLTVEQRMRACYYSLASKVEGPPGSTQKAEAACA | 100 | ZAP70 (20%) | – | 20 |
